According to patent US20150196666A1:
One block for each molecule: values may come before it.

What was measured:
[1] = target: CD74 (invariant chain, Ii) (human) (UniProt P04233); experiment: cell binding assay on antigen-positive cells
[2] = target: human trophoblast cell-surface antigen (TROP-2) (human) (UniProt P09758); experiment: flow cytometry, surface binding on Capan-1 cells
[3] = target: human trophoblast cell-surface antigen (TROP-2) (human) (UniProt P09758); experiment: flow cytometry, surface, NCI-N87 cells
[4] = target: human trophoblast cell-surface antigen (TROP-2) (human) (UniProt P09758); experiment: cell binding assay on TROP-2-expressing cells
[5] = target: CD74 (invariant chain, Ii) (human) (UniProt P04233); experiment: flow cytometry, permeabilized Hep-G2 cells
[6] = target: CD74 (invariant chain, Ii) (human) (UniProt P04233); experiment: flow cytometry, membrane-only CD74, HuH-7 cells; background (GAH-FITC only) in parentheses
[7] = target: CD74 (invariant chain, Ii) (human) (UniProt P04233); experiment: flow cytometry, membrane-only CD74, A-375 cells
[8] = target: CD74 (invariant chain, Ii) (human) (UniProt P04233); experiment: flow cytometry, permeabilized Hs746T cells
[9] = target: CD74 (invariant chain, Ii) (human) (UniProt P04233); experiment: flow cytometry, membrane-only CD74, Capan-1 cells
[10] = target: CD74 (invariant chain, Ii) (human) (UniProt P04233); experiment: flow cytometry, permeabilized HuH-7 cells; background in parentheses
[11] = target: CD74 (invariant chain, Ii) (human) (UniProt P04233); experiment: flow cytometry, membrane-only CD74, NCI-N87 cells
[12] = target: CD74 (invariant chain, Ii) (human) (UniProt P04233); experiment: flow cytometry, permeabilized Raji cells
[13] = target: CD74 (invariant chain, Ii) (human) (UniProt P04233); experiment: flow cytometry, permeabilized Hep-G2 cells; background in parentheses
[14] = target: CD74 (invariant chain, Ii) (human) (UniProt P04233); experiment: flow cytometry, permeabilized Raji cells; background in parentheses
[15] = target: CD74 (invariant chain, Ii) (human) (UniProt P04233); experiment: flow cytometry, membrane-only CD74, Hs746T cells; background (GAH-FITC only) in parentheses
[16] = target: CD74 (invariant chain, Ii) (human) (UniProt P04233); experiment: flow cytometry, permeabilized Hs746T cells; background in parentheses
[17] = target: CD74 (invariant chain, Ii) (human) (UniProt P04233); experiment: flow cytometry, membrane-only CD74, NCI-N87 cells; background (GAH-FITC only) in parentheses
[18] = target: CD74 (invariant chain, Ii) (human) (UniProt P04233); experiment: flow cytometry, membrane-only CD74, Capan-1 cells; background (GAH-FITC only) in parentheses
[19] = target: CD74 (invariant chain, Ii) (human) (UniProt P04233); experiment: flow cytometry, permeabilized A-375 cells
[20] = target: CD74 (invariant chain, Ii) (human) (UniProt P04233); experiment: flow cytometry, membrane-only CD74, A-375 cells; background (GAH-FITC only) in parentheses
[21] = target: CD74 (invariant chain, Ii) (human) (UniProt P04233); experiment: flow cytometry, membrane-only CD74, Hep-G2 cells; background (GAH-FITC only) in parentheses
[22] = target: CD74 (invariant chain, Ii) (human) (UniProt P04233); experiment: flow cytometry, permeabilized Capan-1 cells; background in parentheses
[23] = target: CD74 (invariant chain, Ii) (human) (UniProt P04233); experiment: flow cytometry, permeabilized NCI-N87 cells
[24] = target: CD74 (invariant chain, Ii) (human) (UniProt P04233); experiment: flow cytometry, membrane-only CD74, Hep-G2 cells
[25] = target: CD74 (invariant chain, Ii) (human) (UniProt P04233); experiment: flow cytometry, permeabilized NCI-N87 cells; background in parentheses
[26] = target: CD74 (invariant chain, Ii) (human) (UniProt P04233); experiment: flow cytometry, permeabilized Capan-1 cells
[27] = target: CD74 (invariant chain, Ii) (human) (UniProt P04233); experiment: flow cytometry, membrane-only CD74, HuH-7 cells
[28] = target: CD74 (invariant chain, Ii) (human) (UniProt P04233); experiment: flow cytometry, permeabilized HuH-7 cells
[29] = target: CD74 (invariant chain, Ii) (human) (UniProt P04233); experiment: flow cytometry, membrane-only CD74, Hs746T cells
[30] = target: CD74 (invariant chain, Ii) (human) (UniProt P04233); experiment: flow cytometry, permeabilized A-375 cells; background in parentheses
[31] = target: CD74 (invariant chain, Ii) (human) (UniProt P04233); experiment: flow cytometry, membrane-only CD74, Raji cells; background (GAH-FITC only) in parentheses
[32] = target: CD74 (invariant chain, Ii) (human) (UniProt P04233); experiment: flow cytometry, membrane-only CD74, Raji cells
CD22 (human) [33] = target: CD22 (human) (UniProt P20273); experiment: flow cytometry, unconjugated antibody + FITC goat anti-human IgG, REH cells; background in parentheses
CD22 (human) [34] = target: CD22 (human) (UniProt P20273); experiment: flow cytometry, unconjugated antibody + FITC goat anti-human IgG, RS4;11 cells; background in parentheses
CD22 (human) [35] = target: CD22 (human) (UniProt P20273); experiment: flow cytometry, unconjugated antibody + FITC goat anti-human IgG, 697 cells; background in parentheses
CD22 (human) [36] = target: CD22 (human) (UniProt P20273); experiment: flow cytometry, unconjugated antibody + FITC goat anti-human IgG, Daudi cells; background in parentheses
CD22 (human) [37] = target: CD22 (human) (UniProt P20273); experiment: flow cytometry, unconjugated antibody + FITC goat anti-human IgG, Raji cells; background in parentheses
CD22 (human) [38] = target: CD22 (human) (UniProt P20273); experiment: flow cytometry, unconjugated antibody + FITC goat anti-human IgG, WSU-FSCCL cells; background in parentheses
CD22 (human) [39] = target: CD22 (human) (UniProt P20273); experiment: flow cytometry, unconjugated antibody + FITC goat anti-human IgG, MN-60 cells; background in parentheses
CD22 (human) [40] = target: CD22 (human) (UniProt P20273); experiment: flow cytometry, unconjugated antibody + FITC goat anti-human IgG, Jeko-1 cells; background in parentheses
CD22 (human) [41] = target: CD22 (human) (UniProt P20273); experiment: flow cytometry, unconjugated antibody + FITC goat anti-human IgG, Ramos cells; background in parentheses
CD20 (human) [42] = target: CD20 (human) (UniProt P11836); experiment: flow cytometry, unconjugated antibody + FITC goat anti-human IgG, REH cells; background in parentheses
Sequence of CD20 (human) (P11836 whole entry): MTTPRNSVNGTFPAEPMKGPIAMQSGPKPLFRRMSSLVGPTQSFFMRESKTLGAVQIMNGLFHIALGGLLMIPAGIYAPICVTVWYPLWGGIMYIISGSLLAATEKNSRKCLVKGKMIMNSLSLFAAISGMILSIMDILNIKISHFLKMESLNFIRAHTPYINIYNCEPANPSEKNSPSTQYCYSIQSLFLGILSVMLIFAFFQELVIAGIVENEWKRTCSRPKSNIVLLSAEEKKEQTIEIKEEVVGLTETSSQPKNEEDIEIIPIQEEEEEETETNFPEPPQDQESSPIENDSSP

CD20 (human) [43] = target: CD20 (human) (UniProt P11836); experiment: flow cytometry, unconjugated antibody + FITC goat anti-human IgG, RS4;11 cells; background in parentheses
CD20 (human) [44] = target: CD20 (human) (UniProt P11836); experiment: flow cytometry, unconjugated antibody + FITC goat anti-human IgG, 697 cells; background in parentheses
CD20 (human) [45] = target: CD20 (human) (UniProt P11836); experiment: flow cytometry, unconjugated antibody + FITC goat anti-human IgG, Daudi cells; background in parentheses
CD20 (human) [46] = target: CD20 (human) (UniProt P11836); experiment: flow cytometry, unconjugated antibody + FITC goat anti-human IgG, Raji cells; background in parentheses
CD20 (human) [47] = target: CD20 (human) (UniProt P11836); experiment: flow cytometry, unconjugated antibody + FITC goat anti-human IgG, WSU-FSCCL cells; background in parentheses
CD20 (human) [48] = target: CD20 (human) (UniProt P11836); experiment: flow cytometry, unconjugated antibody + FITC goat anti-human IgG, MN-60 cells; background in parentheses
CD20 (human) [49] = target: CD20 (human) (UniProt P11836); experiment: flow cytometry, unconjugated antibody + FITC goat anti-human IgG, Jeko-1 cells; background in parentheses
CD20 (human) [50] = target: CD20 (human) (UniProt P11836); experiment: flow cytometry, unconjugated antibody + FITC goat anti-human IgG, Ramos cells; background in parentheses
CEACAM6 (human) [51] = target: CEACAM6 (human) (UniProt P40199); experiment: flow cytometry, Hep-G2 cells
Sequence of CEACAM6 (human) (P40199 35-320): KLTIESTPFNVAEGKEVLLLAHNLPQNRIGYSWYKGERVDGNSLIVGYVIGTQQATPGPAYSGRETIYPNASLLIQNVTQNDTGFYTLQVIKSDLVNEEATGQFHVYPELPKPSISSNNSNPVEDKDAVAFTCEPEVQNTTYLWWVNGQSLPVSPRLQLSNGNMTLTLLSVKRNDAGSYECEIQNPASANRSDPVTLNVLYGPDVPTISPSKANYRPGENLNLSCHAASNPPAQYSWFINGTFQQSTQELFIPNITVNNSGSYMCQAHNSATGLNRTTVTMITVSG

CEACAM6 (human) [52] = target: CEACAM6 (human) (UniProt P40199); experiment: flow cytometry, surface, HuH-7 cells
CEACAM6 (human) [53] = target: CEACAM6 (human) (UniProt P40199); experiment: flow cytometry, surface, NCI-N87 cells

Sequence of human trophoblast cell-surface antigen (TROP-2) (human) (P09758 27-323): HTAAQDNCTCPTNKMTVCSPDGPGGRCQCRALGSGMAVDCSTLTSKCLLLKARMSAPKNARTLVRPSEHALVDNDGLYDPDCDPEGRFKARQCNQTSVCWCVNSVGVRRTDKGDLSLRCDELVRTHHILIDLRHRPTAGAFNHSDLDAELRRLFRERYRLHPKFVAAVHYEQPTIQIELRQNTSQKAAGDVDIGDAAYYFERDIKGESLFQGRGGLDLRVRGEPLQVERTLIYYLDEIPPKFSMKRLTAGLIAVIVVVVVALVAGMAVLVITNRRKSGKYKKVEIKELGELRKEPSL
Sequence of CD74 (invariant chain, Ii) (human) (P04233 whole entry, change not shown): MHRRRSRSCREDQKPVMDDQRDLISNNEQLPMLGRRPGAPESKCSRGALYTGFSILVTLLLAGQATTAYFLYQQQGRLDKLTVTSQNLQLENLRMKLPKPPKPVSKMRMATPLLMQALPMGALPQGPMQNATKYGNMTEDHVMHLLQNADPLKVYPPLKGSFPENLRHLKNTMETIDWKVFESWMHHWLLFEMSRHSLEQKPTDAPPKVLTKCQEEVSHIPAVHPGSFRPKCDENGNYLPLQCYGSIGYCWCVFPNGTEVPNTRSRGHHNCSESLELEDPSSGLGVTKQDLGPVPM

- Kd [1]: 0.59 nM
Molecule: milatuzumab-CL2A-SN-38 (antibody)

- MFI (surface) [2]: 237
- MFI (surface) [3]: 795
Molecule: humanized RS7 IgG (hRS7), anti-TROP-2 (anti-EGP-1) humanized antibody

- Kd [4]: 1.2 nM
Molecule: hRS7-CL2A-SN-38 (hRS7 IgG conjugated to SN-38 through the CL2A linker) (antibody)

- MFI Ratio hLL1:bkgd (surface and cytoplasmic) [5]: 31.2
- MFI (surface) [6]: 8
- MFI Ratio hLL1:bkgd (surface) [7]: 5.3
- MFI Ratio hLL1:bkgd (surface and cytoplasmic) [8]: 28.8
- MFI Ratio hLL1:bkgd (surface) [9]: 1.8
- MFI (surface and cytoplasmic) [10]: 114
- MFI Ratio hLL1:bkgd (surface) [11]: 1.3
- MFI Ratio hLL1:bkgd (surface and cytoplasmic) [12]: 28.6
- MFI (surface and cytoplasmic) [13]: 156
- MFI (surface and cytoplasmic) [14]: 143
- MFI (surface) [15]: 17
- MFI (surface and cytoplasmic) [16]: 144
- MFI (surface) [17]: 5
- MFI (surface) [18]: 22
- MFI Ratio hLL1:bkgd (surface and cytoplasmic) [19]: 30.8
- MFI (surface) [20]: 16
- MFI (surface) [21]: 9
- MFI (surface and cytoplasmic) [22]: 248
- MFI Ratio hLL1:bkgd (surface and cytoplasmic) [23]: 36.7
- MFI Ratio hLL1:bkgd (surface) [24]: 1.5
- MFI (surface and cytoplasmic) [25]: 220
- MFI Ratio hLL1:bkgd (surface and cytoplasmic) [26]: 49.6
- Kd [1]: 0.77 nM
- MFI Ratio hLL1:bkgd (surface) [27]: 1.6
- MFI Ratio hLL1:bkgd (surface and cytoplasmic) [28]: 28.5
- MFI Ratio hLL1:bkgd (surface) [29]: 2.1
- MFI (surface and cytoplasmic) [30]: 185
- MFI (surface) [31]: 59
- MFI Ratio hLL1:bkgd (surface) [32]: 19.6
Molecule: milatuzumab (hLL1), humanized anti-CD74 IgG1 (antibody)

- median fluorescence (CD22 (human) [33]): 22.9
- median fluorescence (CD22 (human) [34]): 23.3
- median fluorescence (CD22 (human) [35]): 16
- median fluorescence (CD22 (human) [36]): 145
- median fluorescence (CD22 (human) [37]): 45.9
- median fluorescence (CD22 (human) [38]): 7.7
- median fluorescence (CD22 (human) [39]): 10.3
- median fluorescence (CD22 (human) [40]): 11.2
- median fluorescence (CD22 (human) [41]): 40.8
Molecule: epratuzumab (hLL2), humanized anti-CD22 IgG1 (antibody)

- Kd [4]: 1.2 nM
Molecule: hRS7-CL2-SN-38 (hRS7 IgG conjugated to SN-38 through the CL2 linker) (antibody)

- Kd [1]: 0.8 nM
Molecule: milatuzumab-CL2E-SN-38 (antibody)

- median fluorescence (CD20 (human) [42]): 12.3
- median fluorescence (CD20 (human) [43]): 3.7
- median fluorescence (CD20 (human) [44]): 6.9
- median fluorescence (CD20 (human) [45]): 815
- median fluorescence (CD20 (human) [46]): 422
- median fluorescence (CD20 (human) [47]): 97.4
- median fluorescence (CD20 (human) [48]): 21.5
- median fluorescence (CD20 (human) [49]): 605
- median fluorescence (CD20 (human) [50]): 620
Molecule: veltuzumab (hA20), humanized anti-CD20 IgG1 (antibody)

- MFI (CEACAM6 (human) [51]): 175
- MFI (surface) (CEACAM6 (human) [52]): 81
- MFI (surface) (CEACAM6 (human) [53]): 1120
B1: hMN-15, humanized anti-CEACAM6 IgG1 (antibody, from a related filing, V domains shown)
VH: QVQLVESGGGVVQPGRSLRLSCSSSGFALTDYYMSWVRQAPGKGLEWLGFIANKANGHTTDYSPSVKGRFTISRDNSKNTLFLQMDSLRPEDTGVYFCARDMGIRWNFDVWGQGTPVTVSS
VL: DIQLTQSPSSLSASVGDRVTMTCSASSRVSYIHWYQQKPGKAPKRWIYGTSTLASGVPARFSGSGSGTDFTFTISSLQPEDIATYYCQQWSYNPPTFGQGTKVEIKR
